Source: patent publication US20230158060A1 (INFLARX, published 2023)

Target: GFP-tagged SARS-CoV N protein, full length (SARS-CoV, UniProt P59595 1-422)
Assay: co-immunoprecipitation on Flag-tagged MASP-2 region beads, anti-GFP immunoblot

GFP-tagged SARS-CoV N protein, full length, sequence (P59595 whole entry): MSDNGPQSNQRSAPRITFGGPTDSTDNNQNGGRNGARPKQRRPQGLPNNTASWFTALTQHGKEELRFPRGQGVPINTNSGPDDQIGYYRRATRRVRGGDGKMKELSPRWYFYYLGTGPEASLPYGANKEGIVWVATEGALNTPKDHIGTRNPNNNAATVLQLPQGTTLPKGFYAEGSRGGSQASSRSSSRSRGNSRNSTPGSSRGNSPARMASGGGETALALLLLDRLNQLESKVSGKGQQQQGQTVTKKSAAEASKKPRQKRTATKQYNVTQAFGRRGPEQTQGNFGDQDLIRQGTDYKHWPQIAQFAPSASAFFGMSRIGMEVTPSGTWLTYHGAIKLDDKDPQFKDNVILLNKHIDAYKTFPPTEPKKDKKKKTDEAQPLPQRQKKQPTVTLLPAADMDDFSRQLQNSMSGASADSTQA

B1: Flag-tagged MASP-2 N-terminal CUB1-EGF-CUB2 region (other, UniProt O00187 16-296, looked up, not shown: small tags and cut ends)
chain: TPLGPKWPEPVFGRLASPGFPGEYANDQERRWTLTAPPGYRLRLYFTHFDLELSHLCEYDFVKLSSGAKVLATLCGQESTDTERAPGKDTFYSLGSSLDITFRSDYSNEKPFTGFEAFYAAEDIDECQVAPGEAPTCDHHCHNHLGGFYCSCRAGYVLHRNKRTCSALCSGQVFTQRSGELSSPEYPRPYPKLSSCTYSISLEEGFSVILDFVESFDVETHPETLCPYDFLKIQTDREEHGPFCGKTLPHRIETKSNTVTITFVTDESGDHTGWKIHYTST
notes: domain: CUB1-EGF-CUB2
  binding result: no binding
